According to a protein production outcome set (Wang et al. 2014):

Assay: label from the status in PepcDB records

Question: For “MTVTAPNALNFECETGNYHTFCPISCVAWLYQKIEDSFFLVIGTKTCGYFLQNAMGVMIFAEPRYAMAELEEGDISAQLNDYEELKRLCLEIKRDRNPSVIVWIGTCTTEIIKMDLEGLAPKLEAEIGIPIVVARANGLDYAFTQGEDTVLAAMAARCPTSTAISDPEERNPIQRLLNFGKKKEEVQAQSSQYHPHPPLVLFGSLPDPVVTQLTLELKKQGIKVSGWLPAKRYTELPVIDEGYYVAGVNPFLSRTATTLIRRRKCQLITAPFPIGPDGTRTWIEQICATFGIQPQGLAEREAETWQKLSDYLELVRGKSVFFMGDNLLEISLARFLIRCGMRVLEIGIPYMDKRYQAAELALLSQTCAEMGHPLPTIVEKPDNYNQLQRIKALQPDLVITGMAHANPLEARGISTKWSVEFTFAQIHGFGNARDILELVTRPLRRNQALAGLGWQKLVAH”, which protein production is on record?
Answer: The protein production was “not failed”.

Question: For “MQFKAEARRNKLMGLWVAEVLGKSGDEANAYAAEVVKADFEEAGHEDVMRKVLGDLDGKRPEAEVRAKYEGLMAVAKAQLMDEL”, which protein production is on record?
Answer: Its protein production is “not failed”.

Question: With “MDKIIIQGARENNLKNIFLEIPKNQFVVFTGLSGSGKSTLAFDTLYAEGQRRYLESLSSYARQFLDKVGKPNVDKIEGLTPAIAIDQKTTSKNPRSTVGTITEIYDYLRLLFARVGEQFCPTCLEPISSMSTSDIISQICHLEENSKIIILAPIIKDKKGSFNDKLESLRLKGYVRAFVDGVMVRLDEEIHLHKTKKHTIEAVVDRVVVNNENASRIASAIEKALKESYGELEVEILQDNAPSIRKHYSEHKACFKCKMSFEELEPLSFSFNSPKGACESCLGLGTKFSLDISKILDPNTPLNQGAIKVIFGYNRSYYAQMFEGFCEYNGIDSALCFNELNKEQQDALLYGNGTEISFHFKNSPLKRPWKGIIQIAYDMFKEQKDLSDYMSEKTCSSCEGHRLKASSLSVQVAGLKMADFLTKPIEEVYHFFNDPTHFSYLNEQEKKIAEPILKEILERVFFLYDVGLGYLTLGRDARTISGGESQRIRIASQIGSGLTGVLYVLDEPSIGLHEKDTLKLINTLRNLQKKGNTLIVVEHDKETIKHADFVVDIGPKAGRHGGEVVFSGSVKELLQNNHSTALYLNGTKKIERPKFELPKEKHFLEIKNVNINNIKNLSVQIPLKQLVCITGVSGSGKSSLILQTLLPTAQTLLNHAKKTQSLNGVEIVGLEHLDKVIYLDQAPIGKTPRSNPATYTGVMDEIRILFAEQKEAKILGYSASRFSFNVKGGRCEKCQGDGDIKIEMHFLPDVLVQCDSCKGAKYNPQTLEIKVKGKSIADVLNMSVEEAYEFFAKFPKIAVKLKTLMDVGLGYITLGQNATTLSGGEAQRIKLAKELSKKDTGKTLYILDEPTTGLHFEDVNHLLQVLHSLVALGNSMLVIEHNLDIIKNADYIIDMGPDGGDKGGKVIASGTPLEVAQNCEKTQSYTGKFLALELK” as the sequence, how does the protein production read?
Answer: Its protein production is “failed”.

Question: With “MRRSKYFTPNEVSLHNTINDIWVSYLGKVYDLTPLLEAYKGDVLLKPIIECAGKDISHWFDPKTKDILTHVDPLTGCIKYYTPRGRFIHIPPPCPRTDWANNFGKPWWKDNRYEVGLLSAKTRWIRIINTLTSQEQKLEVCSEESLDEILHRYLFYNSHAASYTWKLSGINLDMSKTLSENGIPEEDEFYCGSPDCNLFSPSICLYFNDDLTEL” as the sequence, how does the protein production read?
Answer: Its protein production is “failed”.

Question: With “MQLFHKTVNRRGTHSIKWDTYKNEELIHAWIADMDFEVPQPIQTALKKRIEHPIFGYTLPPENIGDIICNWTKKQYNWDIQKEWIVFSAGIVPALSTSIQAFTKENESVLVQPPIYPPFFEMVTTNNRQLCVSPLQKQNDTYAIDFEHLEKQFQQGVKLMLLCSPHNPIGRVWKKEELTKLGSLCTKYNVIVVADEIHSDIIYADHTHTPFASLSEELAARTITCMAPSKTFNIAGLQASIIIIPNEKLRQAFTSIQYRQGFHGLNIFAYTAMQSAYTECNDWLNEIRFYIEDNAKFACEYIKDHIPTLSVMKPEGSFLLWIDCSALNLSQDERTKLLEEKGKIIVEPGEKYGLGGEEHIGINIGCPRSVLEEILNRLRHTFS” as the sequence, how does the protein production read?
Answer: The protein production was “not failed”.

Question: For “MGNFSLFSSFNPEGQHDDVANRWRSPTPMRYIIPNIITILAICAGMSSIRLAFEHRYEAAILMVLLAAILDGADGRIARLMDGSSSFGAQMDSLADVINFGVAPSLIVYSFVLNQAHQVGWIAGLVYCVACCLRLARFNVMLDNTDIPKWQGNYFVGVPAPAGALLLLLPMYLGALGLVPSWSWALFFSLYTVIIAFLLVSRLPVWNGKTINQNLRRDIVVPCMLGIVIYVGFLATYTWHTLLITAVSYMIFLPCSFVAYNKRAALEEKKANIKTLSSS”, which protein production is on record?
Answer: The protein production was “failed”.

Question: With “MFTMDDLNQMDTQTLTDTLGSIFEHSSWIAERSAALRPFSSLSDLHRKMTGIVKAADRETQLDLIKKHPRLGTKKTMSDDSVREQQNAGLGKLEQQEYEEFLMLNEHYYDRFGFPFILAVKGKTKQDIHQALLARLESERETEFQQALIEIYRIARFRLADIITEKGETQMKRTMSYGKGNVFAYRTYLKPLTGVKQIPESSFAGRDNTVVGVDVTCEIGGEAFLPSFTDGDNTLVVATDSMKNFIQRHLASYEGTTTEGFLHYVAHRFLDTYSHMDTITLTGEDIPFEAMPAYEEKELSTSRLVFRRSRNERSRSVLKAERSGNTITITEQYSEIMDLQLVKVSGNSFVGFIRDEYTTLPEDGNRPLFVYLNISWQYENTNDSYASDPARYVAAEQVRDLASTVFHELETPSIQNLIYHIGCRILARFPQLTDVSFQSQNHTWDTVVEEIPGSKGKVYTEPRPPYGFQHFTVTREDAEKEKQKAAEKCRSLKA” as the sequence, how does the protein production read?
Answer: The protein production was “failed”.

Question: With “MGTDKFNNIKIDKYENLINVLKTGDIFLCSGNYLVSKLIKKVSESMFSHTGIIVKWGEHTLIMESVEDDGVRIVPLEHYIKNYENSNNRYNGSLFIARHELLQNVNDDSEMIRNLIKVGFSLLNSGYDKNEIAQIVARIGLGIGRHEDNNEYICSEFVNECFKKIGVEFLTDSEGFIFPEHIAADHHVLPIAQIE” as the sequence, how does the protein production read?
Answer: Its protein production is “not failed”.

Question: For “MIVFVRFNSSYGFPVEVDSDTSIFQLKEVVAKRQGVPADQLRVIFAGKELQNHLTVQNCDLEQQSIVHIVQRPQRKSHETNASGGDKPQSTPEGSIWEPRSLTRVDLSSHILPADSVGLAVILDTDSKSDSEAARGPAAKPTYHSFFVYCKGPCHKVQPGKLRVQCGTCRQATLTLAQGPSCWDDVLIPNRMSGECQSPDCPGTRAEFFFKCGAHPTSDKDTSVALNLITNNSRSIPCIACTDVRNPVLVFQCNHRHVICLDCFHLYCVTRLNDRQFVHDAQLGYSLPCVAGCPNSLIKELHHFRILGEEQYNRYQQYGAEECVLQMGGVLCPRPGCGAGLLPEQGQRKVTCEGGNGLGCGFVFCRDCKEAYHEGECDSMFEASGATSQAYRVDQRAAEQARWEEASKETIKKTTKPCPRCNVPIEKNGGCMHMKCPQPQCKLEWCWNCGCEWNRACMGDHWFDV”, which protein production is on record?
Answer: The protein production was “failed”.

Question: With “MKVERLSQPAQHLLTAGVENENSFALDTESVFTSAFLRAARGDARSSSRSDVVSLSEIVLEINQSIDELRVEKPAIKMSPQKYLLRNENNAGEFFFIKKARSEGYLQGRTGDPGAGGVDVSGPSDVRIPNRVTIGPDTVLFHPATGAPLLWFVRDGFDYDFFDGSGFHPRTGAKLAPFTKEEALIFEKRIREKEAEIRREAERVEKDRADREARDFAAKEALARKQEEDRKLREAEAARASEAGQRCDELAANPNDRNKVGQGASFSALKAQAADAVKACDLALKQKPSELRFKYQLARALQFSDRPRSFKLHKELVGQGYAASYDNLGWMYYTDRKDKPQAIVLFRQGIQVGDVDSMVSLAELVDRAEATPANASESKIELCRRAAELGHVGAAQCYQVEVAKQEQAEKDRAQQLEQQKMMIQLMGTIIQSATRR” as the sequence, how does the protein production read?
Answer: Its protein production is “failed”.

Question: With “VSERKAMQKRLTRRERRFRMMFEGHSAPMLLIDEETGAIEQANAAAVEFYGYERDILMSMSIQDINQLPAEEVARERREAAEDGDEFLFEHELASGAVRTVRVLSAPIPNLDRAGTLLFSVIHD” as the sequence, how does the protein production read?
Answer: The protein production was “failed”.

Question: For “MKTLHTDVAIIGAGTAGLAAYRAARAAGKRALLIEGGQYGTTCARVGCMPSKLLIAAAEAAHAAAHGGPFGVHIDGAVRIDGAQVMARVKSERDRFVGFVLEGVENIPAEDKLRGMARFVEDTVLRVDGHTEVRAGSVVIASGSRPAVPPPFLALGDRLVVNDDVFAWDTLPARVAVFGPGVIGLELGQALARLGVQVRVFGVSGSLGGITDPRVRQSARKAFQQEFYLDPDARVLETKRVGDEVEVRYVALDNTERTERFDYALVATGRRPNVDGLDLHNTSLALDARGVPHFDRHTMQAGQAPVFIAGDANADAPLLHEAADEGRIAGENAARYPDVAPGLRRAALGVVFSDPQIALVGTPFARLESGTFVAGEVDFGDQGRSRVMLRNRGMLRVYADIESGRFVGAEMVGPSAEHIGHLLAWAAQQSLTVAQMLEMPFYHPVVEEGLRTALRDAAARLAQARPQRLAA”, which protein production is on record?
Answer: Its protein production is “failed”.

Question: With “MSNYPLHQACMENEFFKVQELLHSKPSLLLQKDQDGRIPLHWSVSFQAHEITSFLLSKMENVNLDDYPDDSGWTPFHIACSVGNLEVVKSLYDRPLKPDLNKITNQGVTCLHLAVGKKWFEVSQFLIENGASVRIKDKFNQIPLHRAASVGSLKLIELLCGLGKSAVNWQDKQGWTPLFHALAEGHGDAAVLLVEKYGAEYDLVDNKGAKAEDVALNEQVKKFFLNNV” as the sequence, how does the protein production read?
Answer: Its protein production is “not failed”.

Question: For “MRTNKDRLVRISVVGEIAPAKMRSPYSVTTEGTVRVIPVLGGITYNVKVGDSAYGWAGDHVEPGVSVMARRKEEEIPLMTLSCIGNEVIVMSGDAKGSRGFVTGKHGGVNHVLVHFEEEVLGKLMVGDKILIKAWGQGLKLLDHPDVKVMNIDPDLFEKLGIQEKNGKIHVPVVAKIPAHMMGSGIGASSSASTDYDIMASNPEDLGVADLKLGDIVAIQDHDNSYGVGKYRKGAVSIGVVVHSACVSAGHGPGVVVIMTGDESKILPEEVERANISDYLVR”, which protein production is on record?
Answer: Its protein production is “not failed”.

Question: For “MERLNSKLFVENCYIMKENERLRKKAELLNQENQQLLFQLKQKLSKTKNSNNGSNNDNKSSSASGQS”, which protein production is on record?
Answer: The protein production was “failed”.

Question: With “MSGLDATIINTAIPAIVSDLHGIQYMGWIVACFLLGMSVSVPIWSKLGERMGNKFAFELSLVLFILGSVLEGVAPDIYFFLISRVLMGVGAGGMGSLPYVIVGFIYPNIKRRTVILSYIAASFSAACIAGPLVGGWIVDALSWHWVFYINVPLGLISIILSIAFYRDAHKSKEKVQFDKMGAFTLIAGLTCFLIGIQMLGLASNVMVALFVIVGIILLISFIFIEKKAKSPIVPLSVFLNKALVGDFVLFALAWGAYIAVNTYLPMWSQAILGTSALIGGMTLIPNSILDIAGSQTAPYFLRRFSNYHLLIVDFTLIAITILGLILVPLNTSYWILMLIAAFSGLGVGSIFVILQIKVQIDASEKDMAPATSLSFLIRILAQTIMAAIYGVIMNLALARGIAGHRGITMTMMNKLSDAESAKSLPTAMLPTMRTIFHSGIIEIMCVALFLVVCAYVINFIYNRKEAKKVAE” as the sequence, how does the protein production read?
Answer: Its protein production is “failed”.

Question: Which protein production does the source give for “MATVAFHTLGCKVNHYETEAIWQLFKEAGYERKEFESSADVYVINTCTVTNTGDKKSRQVIRRAIRQNPDAVICVTGCYAQTSPAEIMAIPGVDIVVGTQDREKMLGYIKQYQEERQPINGVSNIMKARVFEELDVPAFTDRTRASLKIQEGCNNFCTFCIIPWARGLLRSRDPEEVIRQAQQLVDAGYKEIVLTGIHTGGYGEDMKDYNFAQLLKELDSRVKGLKRIRISSIEASQITDEVIEVLDRSDKIVRHLHIPLQSGSNSVLKRMRRKYTMEFFADRLTKLKKALPGLAVTSDVIVGFPGETEEEFMETYNFIKEHKFSELHVFPYSKRTGTPAARMDGQVDENVKNERVHKLIALSDQLAKEYASDYEGDVLEIIPEEPFTETGEGNLLVGYTDNYIKVVFEGSEDLIGQLVKVKILKAGYPYNKGQFVRVAEDDVRENIRLSS” here?
Answer: The protein production was “failed”.

Question: For “MEIKQPAELSHVLTMTHRNLLKMWHNPDNVSDVVIQPIIFTLLFGYLFGGAIAGSVQAYLPMLVTGILIQSILNAASGSGQQLREDINAGVFDRFKTLPISPIVPLAGQLVGDVFRLLISGLMALVTAFMMGWRPIVSPLVLIGVLLLAVFVGWSLSWVFALVGLMVKNAALIGSLSMIIILVLTFLSNAFIPTKTLPHLLQTIVRLNPVSLTITAMRTILRTGHWGPDAFGVLLSGFLIIVIFMPLTVLAYRRFG”, which protein production is on record?
Answer: Its protein production is “failed”.
